# Changes are numbered by the printed parent chain.
# B1: F1 (antibody, V domains shown)
# VH: EVQLLESGGGVVQPGRSLRLSCAASGFTFSSYGMHWVRQAPGKGLEWVAVISYDGSNKYYADSVKGRFTISRDNSKNTLYLQMNSLRAEDTAVYYCARPRAYYGAYGSSFDYWGQGTQVTVSS
# VL: EIVMTQSPSSVSASVGDRVAITCRASQGISSWLAWYQQKPGKAPKLLIYAASSLQSGVPSRFSGSGSGTDFTLTISSLQPEDFATYYCQQSYSTPLTFGGGTKVDIK
# notes: also called clone F1; anti-FOLR1 antibody F1
# B2: F40 (antibody, V domains shown)
# VH: B1 VH with G33A, T69I, L79V, R100T, A101Y, Y102V, Y103F, G104T, A105Y, Y106T
# VL: DIQVTQSPSSLSASLGDTVSITCRASRGLTDSVAWYQQKPGQAPKLLIYAASTLQSGVPSRFGGSGSGSYFTLTITSLQPEDVATYYCQNYKSAPWTFGQGTKVEIK
# notes: also called clone F40; anti-FOLR1 antibody F40
# B3: F8 (antibody, V domains shown)
# VH: B1 VH with P14H
# VL: B1 VL
# notes: also called clone F8; anti-FOLR1 antibody F8
# B4: F100 (antibody, V domains shown)
# VH: B1 VH with D73P
# VL: B1 VL
# notes: also called clone F100; anti-FOLR1 antibody F100
# B5: F48 (antibody, V domains shown)
# VH: B1 VH with Q82H
# VL: B1 VL
# notes: also called clone F48; anti-FOLR1 antibody F48
# B6: F138 (antibody, V domains shown)
# VH: B1 VH with R72T, D73H
# VL: B1 VL
# notes: also called clone F138; anti-FOLR1 antibody F138
# B7: F112 (antibody, V domains shown)
# VH: B1 VH with D73H
# VL: B1 VL
# notes: also called clone F112; anti-FOLR1 antibody F112
# B8: F26 (antibody, V domains shown)
# VH: B1 VH with P14R, Q82P
# VL: B1 VL
# notes: also called clone F26; anti-FOLR1 antibody F26
# B9: F131 (antibody, V domains shown)
# VH: B1 VH with D73A
# VL: B1 VL
# notes: also called clone F131; F131 mAb
# B10: F123 (antibody, V domains shown)
# VH: B1 VH with G15E, D73A
# VL: B1 VL
# notes: also called clone F123; anti-FOLR1 antibody F123
# Molecular target: T1, Cynomolgus/Rhesus macaque FOLR1 Protein, His Tag (ACRO, F01-C52H8) (cynomolgus, UniProt A0A2K5U044 25-233)
# T1 construct: also called cynomolgus FOLR1 protein; not shown: His tag
# Test: ELISA, supernatant diluted 1x
# T1 sequence (A0A2K5U044 entry or part of it): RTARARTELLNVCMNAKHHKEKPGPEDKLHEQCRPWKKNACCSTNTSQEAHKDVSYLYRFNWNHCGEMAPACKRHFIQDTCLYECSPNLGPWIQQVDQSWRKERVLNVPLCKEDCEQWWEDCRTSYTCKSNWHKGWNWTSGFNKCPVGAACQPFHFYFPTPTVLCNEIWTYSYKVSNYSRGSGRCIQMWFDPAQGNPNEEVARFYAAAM
row,OD450,Binder
1,1.38,B1
2,1.35,B2
3,0.896,B3
4,1.16,B4
5,1.15,B5
6,1.14,B6
7,1.26,B7
8,1.24,B8
9,1.2,B9
10,1.36,B10

# Molecular target: T2, Human FOLR1 Protein His Tag (ACRO-FO1-H52H1) (human, UniProt P15328 25-233)
# T2 construct: not shown: His tag
# Test: ELISA, supernatant diluted 1x
# T2 sequence (P15328 25-233 limits assumed): as the sequence (A0A2K5U044 entry or part of it) above, with T2I, R4W, K37R, P146A, Y171H counted along it
row,OD450,Binder
1,1.66,B1
2,0.811,B2
3,1.67,B3
4,1.61,B4
5,1.56,B5
6,1.64,B6
7,1.56,B7
8,1.64,B8
9,1.61,B9
10,1.72,B10

# Molecular target: T1, Cynomolgus/Rhesus macaque FOLR1 …
# Test: ELISA, supernatant diluted 25x
row,OD450,Binder
1,0.994,B1
2,0.924,B2
3,1.06,B3
4,0.875,B4
5,0.908,B5
6,1.17,B6
7,0.933,B7
8,1.02,B8
9,1.09,B9
10,1.07,B10

# Molecular target: T2, Human FOLR1 Protein His Tag …
# Test: ELISA, supernatant diluted 25x
row,OD450,Binder
1,1.18,B1
2,0.163,B2
3,1.31,B3
4,1.18,B4
5,1.29,B5
6,0.827,B6
7,1.17,B7
8,1.48,B8
9,1.38,B9
10,1.33,B10

# Molecular target: T2, Human FOLR1 Protein His Tag …
# Test: ELISA, HEK293 supernatant on coated antigen
row,OD450,Binder
1,2.43,B1
2,2.39,B2
3,2.45,B3
4,2.3,B4
5,2.54,B5
6,2.41,B6
7,2.35,B7
8,2.43,B8
9,2.35,B9
10,2.32,B10

# Molecular target: T1, Cynomolgus/Rhesus macaque FOLR1 …
# Test: ELISA, supernatant diluted 5x
row,OD450,Binder
1,1.26,B1
2,1.11,B2
3,1.28,B3
4,1.03,B4
5,1.04,B5
6,1.14,B6
7,1.21,B7
8,1.21,B8
9,1.27,B9
10,1.3,B10

# Molecular target: T2, Human FOLR1 Protein His Tag …
# Test: ELISA, supernatant diluted 5x
row,OD450,Binder
1,1.45,B1
2,0.382,B2
3,1.65,B3
4,1.53,B4
5,1.59,B5
6,1.69,B6
7,1.42,B7
8,1.51,B8
9,1.52,B9
10,1.47,B10

# From US20240207429A1 (PROFOUNDBIO US, published 2024)
